Experimental data published in paper PMC5982114 (Arteriosclerosis, thrombosis, and vascular biology, 2018).

Columns and labels:
Protein S (human) = Protein S (human) (UniProt P07225); test: fluorescence polarisation
[1] = target: Alexa-Fluor-488-labeled PS (human) (UniProt P07225); test: flow cytometry on cells
FIXa K126A (human) = FIXa K126A (human) (UniProt P00740)
FIXa K132A (human) = FIXa K132A (human) (UniProt P00740)
FIXa K132A/R170A (human) = FIXa K132A/R170A (human) (UniProt P00740)
FIXa N129A (human) = FIXa N129A (human) (UniProt P00740)
[2] = target: FIXa Padua mutant (R170L) (human) (UniProt P00740)
FIXa R150A (human) = FIXa R150A (human) (UniProt P00740)
FIXa R165A (human) = FIXa R165A (human) (UniProt P00740)
Factor IXa wild type = Factor IXa wild type (human, UniProt P00740 47-191; P00740 227-461); test: cell-based or functional assay
DEGR-FIXa K126A (human) = DEGR-FIXa K126A (human) (UniProt P00740); test: other fluorescence titration
DEGR-FIXa K132A (human) = DEGR-FIXa K132A (human) (UniProt P00740); test: other fluorescence titration
DEGR-FIXa N129A (human) = DEGR-FIXa N129A (human) (UniProt P00740); test: other fluorescence titration
[3] = target: DEGR-FIXa Padua mutant (R170L) (human) (UniProt P00740); test: other fluorescence titration
DEGR-FIXa R150A (human) = DEGR-FIXa R150A (human) (UniProt P00740); test: other fluorescence titration
DEGR-FIXa R165A (human) = DEGR-FIXa R165A (human) (UniProt P00740); test: other fluorescence titration
[4] = target: DEGR-labelled des-Gla FIXa (human); test: other fluorescence titration

## FIXa Padua mutant (R170L) (from UniProt P00740 47-191) (enzyme)
Protein S (human)
  IC50: 163 nM

## fluorescently labeled des-Gla FIXa (domain or fragment)
[1]
  median fluorescence intensity: 4000

## des-Gla FIXa (domain or fragment)
Protein S (human)
  IC50: 135 nM

## FIXa R150A (from UniProt P00740 47-191) (enzyme)
Protein S (human)
  IC50: 43 nM

## FIXa N129A (from UniProt P00740 47-191) (enzyme)
Protein S (human)
  IC50: 92 nM

## FIXa K132A (from UniProt P00740 47-191) (enzyme)
Protein S (human)
  IC50: 213 nM

## FIXa K126A (from UniProt P00740 47-191) (enzyme)
Protein S (human)
  IC50: 140 nM

## FIXa R165A (from UniProt P00740 47-191) (enzyme)
Protein S (human)
  IC50: 68 nM

## zymogen form of FIX (natural protein)
Protein S (human)
  IC50: 200 nM

B1: Protein S (natural protein, human, UniProt P07225 42-676, looked up)
chain: ANSLLEETKQGNLERECIEELCNKEEAREVFENDPETDYFYPKYLVCLRSFQTGLFTAARQSTNAYPDLRSCVNAIPDQCSPLPCNEDGYMSCKDGKASFTCTCKPGWQGEKCEFDINECKDPSNINGGCSQICDNTPGSYHCSCKNGFVMLSNKKDCKDVDECSLKPSICGTAVCKNIPGDFECECPEGYRYNLKSKSCEDIDECSENMCAQLCVNYPGGYTCYCDGKKGFKLAQDQKSCEVVSVCLPLNLDTKYELLYLAEQFAGVVLYLKFRLPEISRFSAEFDFRTYDSEGVILYAESIDHSAWLLIALRGGKIEVQLKNEHTSKITTGGDVINNGLWNMVSVEELEHSISIKIAKEAVMDINKPGPLFKPENGLLETKVYFAGFPRKVESELIKPINPRLDGCIRSWNLMKQGASGIKEIIQEKQNKHCLVTVEKGSYYPGSGIAQFHIDYNNVSSAEGWHVNVTLNIRPSTGTGVMLALVSGNNTVPFAVSLVDSTSEKSQDILLSVENTVIYRIQALSLCSDQQSHLEFRVNRNNLELSTPLKIETISHEDLQRQLAVLDKAMKAKVATYLGGLPDVPFSATPVNAFYNGCMEVNINGVQLDLDEAISKHNDIRAHSCPSVWKKTKNS
FIXa K126A (human)
  Ki of inhibition by PS of FX activation by FIXa-phospholipid (S-2765): 100 nM
FIXa K132A (human)
  Ki of inhibition by PS of FX activation by FIXa-phospholipid (S-2765): 132 nM
FIXa K132A/R170A (human)
  Ki of inhibition by PS of FX activation by FIXa-phospholipid (S-2765): 271 nM
FIXa N129A (human)
  Ki of inhibition by PS of FX activation by FIXa-phospholipid (S-2765): 72 nM
[2]
  Ki of inhibition by PS of FX activation by FIXa-phospholipid (S-2765): 175 nM
FIXa R150A (human)
  Ki of inhibition by PS of FX activation by FIXa-phospholipid (S-2765): 48 nM
FIXa R165A (human)
  Ki of inhibition by PS of FX activation by FIXa-phospholipid (S-2765): 33 nM
des-Gla FIXa (human)
  Ki of inhibition by PS of FX activation in the Xase complex (FIXa-FVIIIa): 120 nM
Factor IXa wild type
  Ki of inhibition by PS of FX activation by FIXa-phospholipid (S-2765): 35 nM
DEGR-FIXa K126A (human)
  Kd: 118 nM
DEGR-FIXa K132A (human)
  Kd: 148 nM
DEGR-FIXa N129A (human)
  Kd: 77 nM
[3]
  Kd: 157 nM
DEGR-FIXa R150A (human)
  Kd: 48 nM
DEGR-FIXa R165A (human)
  Kd: 54 nM
[4]
  Kd: 124 nM
